Data on three molecules can be found in PMC3988464 (Journal of immunology (Baltimore, Md. : 1950), 2014).

As usually defined, the Kd is the equilibrium constant for the complex coming apart. Usually koff stands for the rate constant with which the complex falls apart. Usually kon stands for the rate constant with which the complex forms.

Test [1] addresses Isolated Link module of human TSG-6 (Link_TSG6) (human, UniProt P98066 36-129). Description: SPR. Background: SPR reads the build-up and loss of mass on a sensor chip optically.
The target of test [2] is Full-length, wild type recombinant human TSG-6 (human, UniProt P98066 18-277). Description: SPR.
Chain of Full-length, wild type recombinant human TSG-6 (P98066 18-277): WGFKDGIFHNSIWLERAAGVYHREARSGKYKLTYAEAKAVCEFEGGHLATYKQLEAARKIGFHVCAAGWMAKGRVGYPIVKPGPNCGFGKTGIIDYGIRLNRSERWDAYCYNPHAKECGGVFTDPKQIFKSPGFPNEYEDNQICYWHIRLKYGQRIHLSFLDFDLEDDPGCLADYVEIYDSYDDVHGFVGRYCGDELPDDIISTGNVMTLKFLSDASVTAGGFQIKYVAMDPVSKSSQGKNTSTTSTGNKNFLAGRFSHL

Chain of Isolated Link module of human TSG-6 (Link_TSG6) (P98066 36-129): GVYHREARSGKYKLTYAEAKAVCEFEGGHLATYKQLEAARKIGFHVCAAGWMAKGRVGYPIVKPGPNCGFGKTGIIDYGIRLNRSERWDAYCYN

B1: CCL5 (ligand, UniProt P13501 24-91, looked up)
chain: SPYSSDTTPCCFAYIARPLPRAHIKEYFYTSGKCSNPAVVFVTRKNRQVCANPEKKWVREYINSLEMS
In test [1], B1 registered a Kd of 2 nM, a koff of 0.00011 s⁻¹ and a kon of 57000 M⁻¹ s⁻¹.

B2: CXCL8_T (K64A/K67A/R68A) mutant (ligand)
chain: SAKELRCQCIKTYSKPFHPKFIKELRVIESGPHCANTEIIVKLSDGRELCLDPKENWVQRVVEAFLAAAENS
modifications: 72-residue mature form by convention (mature numbering +27 = precursor); monomer/dimer equilibrium
Consider B2, for which, in test [2], the Kd is 2110 nM, the koff is 0.0014 s⁻¹ and the on-rate constant (kon) worked out at 640 M⁻¹ s⁻¹.

B3: CXCL11 (ligand, UniProt O14625 22-94, looked up)
chain: FPMFKRGRCLCIGPGVKAVKVADIEKASIMYPSNNCDKIEVIITLKENKGQRCLNPKSKQARLIIKKVERKNF
Regarding B3, in test [2], the dissociation constant (Kd) was determined as 16.4 nM, the koff worked out at 0.00011 s⁻¹ and the on-rate constant (kon) worked out at 6400 M⁻¹ s⁻¹.
